B1: antitoxin domain of Phd (residues 52-73) (peptide)
chain: LDAEFASLFDTLDSTNKELVNR
B2: Phd^52-73 (domain or fragment)
chain: LDAEFASLFDTLDSTNKELVNR

Experiments:
[1] = target: T1, Doc (wild type), toxin of the doc/phd toxin/antitoxin module (UniProt Q06259 1-126); assay: ITC
T1 sequence: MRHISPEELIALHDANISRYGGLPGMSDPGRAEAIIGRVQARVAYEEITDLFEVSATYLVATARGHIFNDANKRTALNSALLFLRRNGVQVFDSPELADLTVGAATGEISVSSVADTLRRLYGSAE

Doc = target: T2, Doc (UniProt Q06259 1-126); assay: ITC
T2 sequence: T1 sequence

Binder | binding result [1] | binding result (Doc)
B1 | binds | 
B2 |  | binds
